In test [1] the target is T1, anti-TNFα antibody-Fab (IgG-Fab derived from anti-TNFα monoclonal antibody, adalimumab) (Homo sapiens, UniProt P01834+P01857).
T1 construct: cleaving a humanized monoclonal IgG formulation as a starting material into a Fab fragment and an Fc fragment by papain; purchased
The test is described as follows: Biacore 3000 surface plasmon resonance, affinity of SpG-β1 mutants for immobilized IgG-Fab. As to conditions: Table 1, Example 2, GST-fused one-domain peptide. It counts as binding. On the technique in general: SPR reads the build-up and loss of mass on a sensor chip optically.
Procedure: (§1) The affinity of each of the SpG-β1 mutants produced in Example 1 (2) for the IgG-Fab was analyzed by using a biosensor: Biacore 3000 using surface plasmon resonance principle (manufactured by GE Healthcare Bioscience). In this example, the IgG-Fab produced in Example 2 (1) was immobilized on a sensor chip and each peptide was added on the chip. The interaction between the IgG-Fab and the peptide was detected. The IgG-Fab was immobilized on the sensor chip CM5 by amine coupling using N-hydroxysuccinimide (NHS) and N-ethyl-N′-(3-dimethylaminopropyl)carbodiimide hydrochloride (EDC), and ethanolamine was used for blocking (all the sensor chips and the immobilization reagents were manufactured by GE Healthcare Bioscience). The IgG-Fab solution was about 10-fold diluted in an immobilization buffer (10 mM CH3COOH—CH3COONa, pH 4.5) and the IgG-Fab was immobilized on the sensor chip in accordance with the protocol attached to the Biacore 3000. Further, a reference cell to be used as a negative control was also prepared by immobilizing ethanolamine for another flow cell on the chip after activation by EDC/NHS. Various SpG-31 mutants were appropriately prepared at concentrations of 0.1 to 100 μM by using a running buffer (20 mM NaH2PO4—Na2HPO4, 150 mM NaCl, 0.005% P-20, pH 7.4). Each peptide solution was added on the sensor chip at a flow rate of 40 μL/minute for 60 seconds. A sensorgram of the binding reaction at 25° C. was sequentially plotted during the addition (binding phase, 60 seconds) and after the addition (dissociation phase, 60 seconds). After each sensorgram determination, the sensor chip was regenerated by adding 20 mM NaOH (for 30 seconds).
The affinity of the SpG-β1 mutant for the IgG-Fab was measured in the same manner as in the experiment of Example 2.
The affinity of the SpG-β1 mutant for the IgG-Fab was measured in the same manner as in the experiment of Example 3. In this experiment, the measurement was performed on the GST-cleaved type after the GST cleavage (Pep-). Further, not only one domain type (Pep.1d) but also one domain type with Cys at the C-terminus (Pep.1dC) and two domain type with Cys at the C-terminus (Pep.2dC) were used to perform the experiment.

Test [2] concerns anti-Her2antibody-Fab (IgG-Fab derived from anti-Her2 monoclonal antibody, Trastuzumab). The description is as above. It counts as binding, human. As to conditions: Table 1, Example 2, GST-fused one-domain peptide.
Procedure: The Fab fragment was prepared by cleaving a humanized monoclonal IgG formulation as a starting material into a Fab fragment and an Fc fragment by papain, and separating and purifying only the Fab fragment.
Specifically, a humanized monoclonal IgG formulation (Herceptin, manufactured by Chugai Pharmaceutical Co., Ltd., in the case of anti-Her2 monoclonal antibody) was dissolved in a papain digestion buffer (0.1 M AcOH—AcONa, 2 mM EDTA, 1 mM cysteine, pH 5.5). Papain immobilized agarose: Papain Agarose from papaya latex (manufactured by Sigma) was added to the solution and the mixture was incubated at 37° C. for about 8 hours while being mixed with a rotator. The IgG-Fab was collected from flow-through fractions by affinity chromatography using a KanCapA column (manufactured by Kaneka Corporation). Thus, the IgG-Fab was separated and purified from the reaction solution (containing both the Fab fragment and the Fc fragment), which had been separated from the papain immobilized agarose. The separated IgG-Fab solution was purified by gel filtration chromatography using the Superdex 75 10/300 GL column (a standard buffer was used for equilibration and separation) to obtain an IgG-Fab solution.
as §1

Where no end group is shown, it is not given here.

The results in this text go back to patent US10556944B2, “Fab region-binding peptide” (priority 2013, dated 2020).

Consider “K13T/E19I/F30L: GST-fused one-domain SpG-β1 mutant, amino acid SEQ ID NO: 15 (TTYKLILNGKTLTGETTTIAVDAATAEKVLKQYANDNGVDGEWTYDDATKTFTVTE; also: GST-fused)”, for which the kon in test [1] (25° C., pH 7.4) amounted to 92300 s/M; in test [2] (25° C., pH 7.4), 141000 s/M. Also, the KA in test [1] (KA=kon/koff, 1:1 binding model) amounted to 1.8e+06 M⁻¹; in test [2] (KA=kon/koff, 1:1 binding model) it was 1.99e+06 M⁻¹. The “KA Vs. Wild” value turned out to be 2.8 in test [1] (fold of wild-type KA) and 3.6 in test [2] (fold of wild-type KA).
